Measurements: patent US20230349919A1
Positions count from the first letter of the chain named. Each block holds one binder with its values, some of them ahead of it.

Columns and labels:
[1] = molecular target: human IL-6Rα (hIL-6Rα), barcoded negative control antigen (human) (UniProt P08887); experiment: barcoded-antigen count on source cell (scRNA-seq)
[2] = molecular target: human IL-4Rα (hIL-4Rα) monomeric protein (human) (UniProt P24394); experiment: barcoded-antigen count on source cell (scRNA-seq)

Sequence of human IL-6Rα (hIL-6Rα), barcoded negative control antigen (human) (P08887 20-358 limits assumed): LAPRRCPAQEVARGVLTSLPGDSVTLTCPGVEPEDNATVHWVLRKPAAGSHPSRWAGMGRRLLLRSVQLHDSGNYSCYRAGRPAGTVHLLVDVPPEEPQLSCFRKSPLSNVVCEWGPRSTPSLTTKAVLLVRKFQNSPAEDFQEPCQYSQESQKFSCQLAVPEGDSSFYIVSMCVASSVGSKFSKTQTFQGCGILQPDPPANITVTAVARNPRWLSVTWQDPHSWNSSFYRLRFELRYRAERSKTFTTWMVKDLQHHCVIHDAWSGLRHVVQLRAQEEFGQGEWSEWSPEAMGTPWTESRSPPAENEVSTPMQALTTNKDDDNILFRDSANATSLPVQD

REGN560.L15 ab raw [2]: 924 counts
B2: Table 1 Line # 50 antibody (SP_Plasma_cell) (antibody, human IgG4, V domains shown)
VH: EVKLLESGGGLVQPGGSLRLSCAASGFSFSTYAMNWVRQAPGKGLEWVSAITGSGGSTYYADSVKGRFTMSRDNSKNTLYLQMNSLRAEDTAVYYCAKDRRGAFDIGGQGTMVTVSS
VL: DIQMTQSPSSVSASVGDRVTITCRASQGISSWLAWYQQKPGKVPKFLIYAASNLQSGVPSRFSGSGSGTDFTLTISSLQPEDFATYYCQQANSFPFTFGPGTKVDIK

REGN560.L15 ab raw [2]: 6050 counts | REGN78.L15 ab raw [1]: 66 counts
B4: Table 1 Line # 38 antibody (SP_B_cell) (antibody, human IgG4, V domains shown)
VH: EVHLVESGGGLAKPGGSLRLSCTASGFTFSTYNLNWVRQAPGKGLEWVSYISRSSVYIYYADSLKGRFTISRDDAKNSLYLQMNSLRAEDTAVYYCVRDDYGDYVPLDYWGQGTLVTVSS
VL: AIQMTQSPSSLSASVGDRITITCRASQGISNDLGWYQQKPGKAPKLLIFAASSLQSGVLSRFSGSGSGTDFTLTISSLQPEDVATYFCLQDYNFPRTFGQGTKVEIK

REGN78.L15 ab raw [1]: 5 counts
B6: Table 1 Line # 53 antibody (SP_Plasma_cell) (antibody, human IgG4, V domains shown)
VH: EIQLVESGGGLVQPGRSLRLSCAASGFTFDDYAMHWVRQAPGKGLEWVSGINWNNGSLGYADSVKGRFTISRDNAKNSLYLQMNSLRTEDTALYYCVKDTGSWASYYGMDVWGHGTTVTVSS
VL: DIQMTQSPSSLSASIGDRVTITCRASQGIRNDLGWYQQKPGKAPKRLIYAASSLQSGVPSRFSGSGSGTEFTLTISSLQPEDFATYYCLQHNSYPYTFGQGTKLEIK

REGN78.L15 ab raw [1]: 26 counts
B7: Table 1 Line # 54 antibody (SP_Plasma_cell) (antibody, human IgG4, V domains shown)
VH: QVQLVQSGAEVKKPGASVKVSCKASGYTFTNYGISWVRQAPGQGLEWMGWISVYNGNTNYAQKLQGRVTMTTDTSTSTAYMEVRSLRSDDTAVYYCARGVNWNYVFDYWGQGTLVTVSS
VL: B6 VL with I15V, A50V, A51V, Y96W, L104V

REGN78.L15 ab raw [1]: 2 counts
B9: Table 1 Line # 49 antibody (SP_Plasma_cell) (antibody, human IgG4, V domains shown)
VH: EVHLLESGGGFIQPGGSLRLSCAASGFTFSTYAMNWVRLAPGKGLEWVSTISGSGGFTSYTDSVQGRFTISRDNSKNKLYLQINNLTAEDTAVYYCAKDRRIVGATGFDYWGQGALVTVSS
VL: DIQMTQSPSSLSASAGDRVTITCRASQSISSYLNWYQQKPGKAPKLLIYAASSLQSGVPSRFSGSGSGTDFTLTISSLQPEDSATYYCQQSYGFHTFGQGTRLEIK

REGN560.L15 ab raw [2]: 3560 counts | REGN78.L15 ab raw [1]: 17 counts
B13: Table 1 Line # 39 antibody (SP_B_cell) (antibody, human IgG4, V domains shown)
VH: EVQLVESGGDLVQPGRSLRLSCAASGFTFDDYAMYWVRQTPGKGLEWVSRITWNSGSIGYAGSVQGRFTISRDNAKNSLYLQMNSLRAEDSALYYCAKDIGGSYLGFDYWGQGTLVTVSS
VL: EIVLTQSPGTLSLSPGERVTLSCRASQSVSATYFAWYQQKPGQPPRLLIYGASNRATGIPDRFSGSGSGTDFTLTISRLEPEDFAVYYCQQNGNSYTFGQGTILEIK

REGN78.L15 ab raw [1]: 1 counts
B15: Table 1 Line # 40 antibody (SP_Plasma_cell) (antibody, human IgG4, V domains shown)
VH: QVQLQESGPGLVKPSETLSLTCTISGGSISTYYWSWIRQPPGKGLEWIGYIYYSGNTNYNPSLKSRVTISVDTSKNQFSLKLNSVTAADTAVYYCARHRGSYVYGMDVWGQGTTVTVSS
VL: DIQMTQSPSSLSASLVDRVTITCRASQTISSYLNWYQQKPGKAPKLLIYGASILQSGVPSRFSGSGSGTDFTLTISSLQPEDHAVYFCQQSYSSPTFGGGTKVEIK

REGN78.L15 ab raw [1]: 2 counts
B16: Table 1 Line # 46 antibody (SP_Plasma_cell) (antibody, human IgG4, V domains shown)
VH: EVQLEASGGDLVQPGRSLRLSCAASGFIFDDFGMHWVRQAPGKGLEWVSGISWNGGHIGYADSVKGRFTISRDNAKNSLYLQMNSLRAEDTALYYCAKEHSSSWYGFFDFWGRGTLVTVSS
VL: DIQMTQSPSSLSASVGDRVTITCRASQGLSNSVAWYQQKPGQIPRLLISAAASLQSGVPSRFSGSGSGTDFTLTISRLQPEDVATYYCQNYNSAPRTFGQGTNVEIK

The next lines start with the binder.

B1: Table 1 Line # 35 antibody (SP_B_cell) (antibody, human IgG4, V domains shown)
VH: EVQLVESGGGLVKPGGSLRLSCAASGFTFSSYSMNWVRQAPGKGLEWVSSISSSSSYIYYADSVKGRFTISRDNAKNSLYLQMNSLRAEDTAVYYCARDRSSSPLENWGQGTLVTVSS
VL: B2 VL with V43A, F46L, N53S, F96I, P100Q, K103R, V104L, D105E
REGN78.L15 ab raw [1]: 33 counts

B3: Table 1 Line # 1 antibody (BM_Plasma_cell) (antibody, human IgG4, V domains shown)
VH: EVQLVESGGGLVKPGGSLRLSCAASGFTFSSYSMNWVRQAPGKGLEWVSSISSSSSYIYYADSVKGRFTISRDNAKNSLYLQMNSLRAEDTAVYYCASLAARPFWGQGTMVTVSS
VL: B2 VL with K42R, V43A, F46L, N53S, F96L, P100G, D105E
REGN78.L15 ab raw [1]: 271 counts

B5: Table 1 Line # 37 antibody (SP_B_cell) (antibody, human IgG4, V domains shown)
VH: QVHLVESGGDVVQPGRSLRLSCAASGFTFSYYGMHWVRQAPFKGLEWVAVIWYDGSNKYYADSVKGRFTITRDNSKNTVYLQMNSLRAEDTAIYYCARWGGFGVTGTHLDYWGQGTLVTVSS
VL: DIQLTQSPSLLSASVGDRVTITCWASQDIAGHFAWYQQKPGTVPKLLIYAISTLDSGVPSRFSGSRSGTEFTLTISSLQPEDFATYYCQHLNSYPYTFGQGTKLEIK
REGN78.L15 ab raw [1]: 60 counts

B8: Table 1 Line # 3 antibody (BM_Plasma_cell) (antibody, human IgG4, V domains shown)
VH: EVQLVESGGGLVQPGRSLRLSCAASGFTFDDYAMHWVRQVTGKGLEWVSGINWNSGNIGYADSVRGRFTISRDNAKNSLYLQMNSLRAEDTALYYCAKDSGSSWYGYFDLWGRGTLVTVSS
VL: DIQMTQSPSTLSASVGDRVTITCRASQSISRWLAWYQQKPGKAPKFLIYKASSLESGVPSRFSGSGSGTEFTLTISSLQPDDFATYYCQQYNSDSRTFGQGTKVEIK
REGN78.L15 ab raw [1]: 236 counts

B10: Table 1 Line # 11 antibody (BM_Plasma_cell) (antibody, human IgG4, V domains shown)
VH: EVQLVESGGGLVQPGRSLRLSCAASGFTFDDYAMHWVRQAPGKGLEWVSGISWNSGSIGYADSVKGRFTISRDNAKNSLYLQMNSLRAEDTALYYCARDYSSAWYGYFDSWGQGTLVTVSS
VL: DIQMTQSPSSLSASVGDRVTITCRASQGINNYLAWYQQKPGKIPKLLIFTASTLQSGVPSRFSGSGSGTDFTLTINSLQPEDVATYYCQNYNSVPRTFGQGTKVEIK
REGN78.L15 ab raw [1]: 115 counts

B11: Table 1 Line # 12 antibody (BM_Plasma_cell) (antibody, human IgG4, V domains shown)
VH: QVQLVESGGGVVQPGRSLRLSCAASGFTFSSYGMHWVRQAPGKGLEWVSVISYDGSNKYYADSVKGRFTISRDNSKNTLFLQVNSLRAEDTAVYYCAKEGRTGFDYWGQGTLVTVSS
VL: B10 VL with S26R, N30S, Y36F, I43V, F49Y, T50A, N76S, N90K, V94A, R96W
REGN78.L15 ab raw [1]: 348 counts

B12: Table 1 Line # 15 antibody (BM_Plasma_cell) (antibody, human IgG4, V domains shown)
VH: B10 VH with G10A, T28A, S55G, G56A, I58L, V64L, A88S, Y94F, S110Y
VL: B10 VL with G28D, N30S, I43V, F49Y, T50A, N76S, E81Q
REGN78.L15 ab raw [1]: 158 counts

B14: Table 1 Line # 18 antibody (BM_Plasma_cell) (antibody, human IgG4, V domains shown)
VH: EVQLVQSGAEVKKPGESLKISCKGSGYRFTTNWIGWVRQMPGKGLEWMGIIYPDDSDTRYSPSFQGQVTISADKSINTAYLHWNSLKSSDTAIYYCARGANWFDPWGQGTLVTVSS
VL: EIVLTQSPGILSLSPGKRATLSCRASQSVSSNFLAWYQQKPGQAPRLLIYGTSSRANGIPDRFSGSGSGTDFTLTISGLEPEDFAEYYCQQYGSSVTFGQGTRLEIK
REGN78.L15 ab raw [1]: 55 counts
